Key:
HUVECs [1] = test: Adhesion of endothelial cells to fibronectin, vitronectin or collagen (Example 5-1); assay type: cell-based, human
Method: Flat-bottomed 96-well ELISA (enzyme-linked immunosorbent assay) plates (Costar, Corning Inc., NY) were incubated overnight at 4° C. with 10 μg/ml of fibronectin (Promega Inc., USA), vitronectin (Promega Inc., USA) and collagen, respectively, to coat the well surface. Then, a test was performed in the same manner as in Example 4-1 above.

HUVECs [2] = test: Migration of endothelial cells toward fibronectin, vitronectin or collagen (Example 5-2); assay type: cell-based, human
Method: The undersurface of a transwell plate was coated with each of fibronectin, vitronectin and collagen, and then, a test was performed in the same manner as in Example 4-2 above.

caspase-3 = test: Caspase-3 activity in HUVECs (Example 7-2); assay type: cell-based, human; details: control (PBS) at 24 hours about 250 AU
Method: With respect to the induction of endothelial cell apoptosis (active cell death) by the fas-1 domain, which had been confirmed in Example 7-1 above, the present inventors measured the activity of caspase-3, which is activated when apoptosis occurs, in the cells treated with the fas-1 domain.
HUVECs were spread onto a 100-mm plate (10 ml culture solution) with M199 medium containing 10% FBS, followed by incubation in a 37° C. incubator for 12 hours. After the incubation, the medium was removed from the plate, the cells were added with fresh medium containing 0.1% FBS and further incubated for 24 hours. The cell-containing medium was treated with 5 μM or 20 μM of the fas-1 domain (βig-h3 D-IV) prepared in Example 1. A control was treated with PBS buffer. At 12 hours and 24 hours after the treatment, the cells were harvested. The caspase-3 activity of the cells was measured with an EnzCheck Caspase-3 Assay Kit(#2) (Molecular Probe Co., Eugene, Oreg., USA). Moreover, to verify that measured values are attributed to caspase-3 activity, each of the samples was treated with DEVD-CHO (Molecular Probe Co., Eugene, Oreg., USA) as a caspase-3-specific inhibitor. The control was treated with DMSO.

melanoma cells (B16F10) = test: Proliferation of fas-1-overexpressing melanoma cells, MTT (Example 10-1); assay type: cell-based, murine; details: fas-1 domain overexpressed (fas-1/B16F10) vs pLNCX/B16F10, 48-72 hours
Method: cDNA (SEQ ID NO: 65) encoding the fourth fas-1 domain of βig-h3 was cloned into the EcoRI/XhoI sites of a pLNCX retrovirus vector (Clontech Lab. Inc., USA). The resulting recombinant retrovirus vector was named “fas-1/pLNCX”. Packaging cell PT67 (Clontech Lab. Inc., USA) were transfected with the fas-1/pLNCX vector using lipofectamine. The transformed cells were incubated at 37° C. for 48 hours. After completion of the incubation, virus particles present in the culture medium were collected, and filtered one time through a 0.45-μm filter. The filtered virus particles were added to a culture medium of melanoma cells (B16F10), and then allowed to react at 37° C. for 6 hours. The culture medium was replaced with fresh medium, and the transfected cells were screened several times in the presence of 1 mg/ml of G418. Western blot analysis using a βig-h3 antibody was performed to confirm that the fas-1 domain is overexpressed in the screened transfected cells. As a result, fas-1-overexpressing melanoma cells (hereinafter, referred to as “fas-1/B16F10”) were prepared. […]
Each of the fas-1-overexpressing melanoma cells (fas-1/B16F10) and the control cells (pLNCX/B16F10) was suspended in medium at a density of 3×10^4 cells/ml, and 0.1 ml of the cell suspension was added to each well of a 96-well plate. […] Thereafter, the absorbance was measured at 570 nm in a Bio-Rad model 550 microplate reader.

caspase-3 activity (caspase-3; 5 μM): 300 AU
caspase-3 activity (caspase-3; 20 μM): 600 AU
B1: fas-1 domain: recombinant protein containing the fourth fas-1 domain of human βig-h3 (SEQ ID NO: 64) (protein, listed as Homo sapiens)
chain: MGTVMDVLKGDNRFSMLVAAIQSAGLTETLNREGVYTVFAPTNEAFRALPPRERSRLLGDAKELANILKYHIGDEILVSGGIGALVRLKSLQGDKLEVSLKNNVVSVNKEPVAEPDIMATNGVVHVITNVL
inhibition of adhesion of HUVECs to collagen (HUVECs [1]; plate coated with 10 μg/ml collagen): only partially inhibited
inhibition of adhesion of HUVECs to fibronectin (HUVECs [1]; plate coated with 10 μg/ml fibronectin): completely inhibited
inhibition of adhesion of HUVECs to vitronectin (HUVECs [1]; plate coated with 10 μg/ml vitronectin): completely inhibited
inhibition of migration of HUVECs to collagen (HUVECs [2]; transwell coated with collagen): partially inhibited
inhibition of migration of HUVECs toward fibronectin (HUVECs [2]; transwell coated with fibronectin): completely inhibited
inhibition of migration of HUVECs toward vitronectin (HUVECs [2]; transwell coated with vitronectin): completely inhibited
effect on proliferation of melanoma cells (melanoma cells (B16F10)): no effect on the proliferation of melanoma cells

Reference: patent publication US20070167369A1, “Novel use of isolated polypeptide comprising four FAS-1 domains, EM1 domain and RGD motif” (KYUNGPOOK NATIONAL UNIVERSITY INDUSTRY-ACADEMIC COOPERATION …, priority 2004, published 2007)
